From US20070274969A1

Experiments:
[1] = molecular target: human Bub1, endogenous (human) (UniProt O43683); assay: cell-based or functional assay
[2] = molecular target: rat Bub1, endogenous (rat); assay: cell-based or functional assay

Chain of human Bub1, endogenous (human) (O43683 whole entry): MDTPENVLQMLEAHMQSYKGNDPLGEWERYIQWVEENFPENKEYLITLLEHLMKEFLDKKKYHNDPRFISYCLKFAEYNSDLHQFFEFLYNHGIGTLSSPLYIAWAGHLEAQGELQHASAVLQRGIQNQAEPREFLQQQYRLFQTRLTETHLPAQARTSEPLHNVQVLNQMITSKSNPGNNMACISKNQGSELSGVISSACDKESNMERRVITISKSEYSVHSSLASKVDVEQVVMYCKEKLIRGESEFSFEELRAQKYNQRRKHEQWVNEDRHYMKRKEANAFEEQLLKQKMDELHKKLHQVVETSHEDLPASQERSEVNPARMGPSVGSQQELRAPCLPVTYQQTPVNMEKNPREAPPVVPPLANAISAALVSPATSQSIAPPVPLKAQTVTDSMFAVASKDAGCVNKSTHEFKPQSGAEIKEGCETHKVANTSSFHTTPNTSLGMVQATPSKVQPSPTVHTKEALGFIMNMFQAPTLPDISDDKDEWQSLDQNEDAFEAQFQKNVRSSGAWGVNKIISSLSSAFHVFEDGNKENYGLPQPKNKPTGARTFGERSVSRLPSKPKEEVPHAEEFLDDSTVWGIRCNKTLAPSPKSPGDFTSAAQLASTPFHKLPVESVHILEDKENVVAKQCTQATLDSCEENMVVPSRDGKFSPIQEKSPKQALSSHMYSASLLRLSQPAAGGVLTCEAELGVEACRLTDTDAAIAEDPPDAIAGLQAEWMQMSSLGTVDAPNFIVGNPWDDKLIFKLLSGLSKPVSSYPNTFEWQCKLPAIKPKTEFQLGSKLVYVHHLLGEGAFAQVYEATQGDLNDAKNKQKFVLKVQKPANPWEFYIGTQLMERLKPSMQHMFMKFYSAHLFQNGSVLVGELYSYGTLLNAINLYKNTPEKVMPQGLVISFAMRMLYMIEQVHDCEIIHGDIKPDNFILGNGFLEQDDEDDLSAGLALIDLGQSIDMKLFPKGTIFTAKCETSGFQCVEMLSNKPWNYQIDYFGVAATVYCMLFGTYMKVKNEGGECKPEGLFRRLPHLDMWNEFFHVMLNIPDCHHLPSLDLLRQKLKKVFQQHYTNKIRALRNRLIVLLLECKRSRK

Substance: SV40 large T antigen, wild-type (from UniProt P03070 1-708)
- % > 4N cells (endoreduplication), 100 ng/ml nocodazole [1]: 45.7%
- mitotic index (phospho-histone H3 positive cells), nocodazole for 15 hours [1]: 14.6%
- cells that proceed to anaphase at 24 ng/ml nocodazole, time-lapse microscopy of immortalized rat embryo fibroblasts [2]: 90%
